For assay [1], the system named is yeast-induced fever model in rats. Put plainly: Yeast-induced fever model in SD rats. Type of assay: in vivo. Particulars: for Body temperature 2 hours after modeling / Body temperature 4 hours after modeling / Body temperature 6 hours after modeling / Body temperature 8 hours after modeling: 20% yeast s.c., SD rats. The protocol:
• Medicines: yeast (OXOID LP0021), aspirin (SIGMA A2093), protein BD-6; • Instruments: electronic balance (SARTORIUS BP121S type), electronic clinical thermometer (CITIZEN CT-513W type). • Experiment grouping: • Normal control group; • Model group: yeast fever model; • Positive control group: Aspirin 300 mg/kg group; • Protein BD-6, 10 mg/kg group, 50 mg/kg group.
Preparation of experimental animals: After the experimental animals adapt to the experimental environment (temperature 22° C.±2° C., relative humidity 50%±2%) for 1 day. Pre-adaptation to measure rectal temperature at 8:00 and 15:00, rats were fasted and water was taken freely 12 h before experiment, and let the animal to empty its feces before measuring the rectal temperature. Apply petroleum jelly to the electronic thermometer probe before each temperature measurement. Insert the rat rectum 2 cm (can be marked at 2 cm to ensure that the depth of each insertion is consistent), and record the body temperature after the reading is stable.
Subcutaneous injection of dry yeast to replicate rat fever model: The body temperature of the rats was measured before modeling. Qualified rats with a body temperature of 36.2-37.3° C. were selected and randomly divided into groups with 8 rats in each group. After oral administration of aspirin and different doses of protein BD-6, 20% yeast suspension (10 ml/kg) was injected subcutaneously immediately, and the normal control group was injected intraperitoneally with an equal volume of normal saline. The body temperatures of the rats were monitored after 2 hours for a total of 8 hours.
According to the body temperature measured at each time point on the day of the experiment, calculate the mean, standard deviation and standard error of the body temperature of each group of rats. The data of each group was compared with TTEST, and P<0.05 was considered as a significant difference.

In assay [2] the test system is phenol red excretion method in mice. Put plainly: Expectorant test, phenol red excretion method in mice. Particulars: for Phenol red excretion: X±SEM, N=10. The class given is in vivo, ICR mice. The protocol:
• Animals: male ICR mice; • Drugs and reagents: Mucosolvan (ambroxol hydrochloride tablets), phenol red, sodium bicarbonate, protein BD-6; • Instruments: centrifuge (Sigma-3K15 type), balance (XS105DU type), Microplate tester (BIO-TEK type). • Experiment grouping: • Solvent control group; • Mucosolvan 30 mg/kg group; • Protein BD-6, 20 mg/kg group, 50 mg/kg group.
The animals were fasted and water was taken freely 16 hours before the experiment. Orally administered Mucosolvan and different doses of protein BD-6 (administration volume 10 ml/kg) in groups, and the solvent control group was given the same volume of distilled water. One hour later, 2.5% phenol red solution was injected intraperitoneally. Mice were sacrificed by neck dislocation after 30 minutes. Take a trachea from below the thyroid cartilage to the branch of the trachea, and put the trachea into 3 ml 5% NaHCO3 solution and let it stand for 3 hours. Take 1 ml of the supernatant and centrifuge at 3000 rpm for 5 minutes. Measure and record the absorbance at 546 nm. According to the standard curve of phenol red, the excretion of phenol red was calculated.
Record the time point of oral administration, the time point of intraperitoneal injection of 2.5% phenol red solution, and the time point of taking the trachea respectively; The absorbance of each group of samples was measured by the microplate reader at 546 nm, Calculate the excretion of phenol red according to the standard curve of phenol red. Calculate the mean and standard error of the data in each group, and use TTEST to compare the solvent control group with other groups, and P<0.05 is considered as a significant difference.

Assay [3] deals with mice cough induced by ammonia water. Put plainly: Antitussive test, cough induced by ammonia water in mice. The settings on record: for Incubation period (cough): 10% ammonia water 10 seconds; for Incubation period (cough) / Number of coughs: X±SEM; for Number of coughs: within 2 minutes. Type of assay: in vivo, ICR mice. The method, then:
• Animals: male ICR mice; • Drugs and reagents: dextromethorphan hydrobromide, ammonia water, 0.2% CMC-Na, protein BD-6; • Apparatus: Compressed nebulizer (403T type), balance (XS105DU type). • Experiment grouping: • Solvent control group; • Dextromethorphan 15 mg/kg group; • Protein BD-6, 20 mg/kg group, 50 mg/kg group.
Dextromethorphan and different doses of protein BD-6 (administration volume 10 ml/kg) were given orally in groups, and the solvent control group was given the same volume of distilled water. One hour later, mice were put into a sealed box and atomized 10% ammonia water for 10 seconds, and then observed and recorded the incubation period of cough in mice and the number of coughs in 2 minutes.
Record the time point of oral administration, the time point of atomization experiment, the incubation period of mice cough and the number of coughs within 2 minutes, respectively. The incubation period of cough refers to the number of seconds from the start of the atomization of ammonia to the occurrence of cough. The performance of coughing in mice is based on contraction of their abdominal muscles (breast contraction) and opening their mouths at the same time. Calculate the mean and standard error of each group of data, and use TTEST to compare the model group with other groups, and P<0.05 is considered as a significant difference.

For assay [4], the system named is acetic acid writhing of ICR mice. Put plainly: Acetic acid writhing test in ICR mice. The class given is in vivo. The settings on record: for Frequency of writhing / Writhing incubation period: 0.6% acetic acid i.p., within 15 minutes. The protocol:
• Animals: male ICR mice; • Drugs and reagents: aspirin, physiological saline, glacial acetic acid, protein BD-6. • Experiment grouping: • Model group; • Aspirin 300 mg/kg group; • Protein BD-6, 50 mg/kg group, 200 mg/kg group.
One day after the experimental animals adapt to the environment, Aspirin 300 mg/kg, protein BD-6 50 mg/kg, 200 mg/kg were given orally one hour in advance, and the administration volume was 10 ml/kg; Then, 0.6% acetic acid solution was injected intraperitoneally, and the incubation period (seconds) and frequency of writhing in the animal was observed within 15 minutes.
Calculate the mean and standard error of the data in each group. Compared with the model group by TTEST, P<0.05 was considered as statistically different.

The mark [5] stands for this setting: BD-6 20 mg/kg and 50 mg/kg, P<0.05.

B1: BD-6: recombinant keratin with the amino acid sequence SEQ ID NO:1, expressed in E. coli, about 45 kD; protein of Example 4 (protein, listed as Bos taurus)
chain: MTTTIRHFSSGSIKGSSGLAGGSSRSCRVSGSLGGGSCRLGSAGGLGSGLGGSSYSSCYSFGSGGSYGSGGYVSGGYGGGFGGVDGLLVGGEKATMQNLNDRLASYLDKVRALEEANTELELKIRDWYQKQAPGPAPDYSSYFKTIEDLRNKIHTATVDNANLLLQIDNARLAADDFRTKFETEQALRVSVEADINGLRRVLDELTLARADLEMQIENLKEELAYLRKNHEEEMKALRGQVGGEINVEMDAAPGVDLSRILNEMRDQYEKMAEKNRKDAEDWFFSKTEELNREVATNSELVQSGKSEISELRRTLQALEIELQSQLSMKASLEGSLAETENRYCMQLSQIQGLIGSVEEQLAQLRCEMEQQNQEYKILLDVKTRLEQEIATYRRLLEGEDAHLTQYKTKEPVTTRQVRTIVEEVQDGRVISSREQVHQTSH
For the molecule B1, in assay [1] (BD-6 10 mg/kg oral), the “Body temperature 2 hours after modeling” value turned out to be 37.0±0.1 °C, the “Body temperature 4 hours after modeling” value is 37.4±0.1 °C, the “Body temperature 6 hours after modeling” value was found to be 37.3±0.09 °C and the “Body temperature 8 hours after modeling” value turned out to be 37.5±0.1 °C. In assay [1] (BD-6 50 mg/kg oral), the “Body temperature 2 hours after modeling” value was determined as 37.0±0.2 °C, the “Body temperature 4 hours after modeling” value is 37.4±0.1 °C, the “Body temperature 6 hours after modeling” value is 37.4±0.1 °C and the “Body temperature 8 hours after modeling” value was 37.3±0.1 °C. For the same molecule, the “Effect on increase in body temperature (in words)” value in assay [1] (BD-6 10 and 50 mg/kg, most time points after modeling, P<0.05 vs model group) was “can inhibit the increase in body temperature of model rats to varying degrees”. Further, in assay [2] (setting [5]), the “Excretion of phenol red vs solvent control (in words)” value was “significantly increased the excretion of phenol red”. In assay [2] (BD-6 20 mg/kg oral), the Phenol red excretion is 0.789±0.115^∗ µg/ml. Further, the Phenol red excretion in assay [2] (BD-6 50 mg/kg oral) is reported as 0.855±0.085^∗∗ µg/ml. The “Number of coughs vs solvent control (in words)” value in assay [3] (setting [5]) is listed as “significant improvement in the number of coughs”. In assay [3] (BD-6 20 mg/kg oral), the “Incubation period (cough)” value was 33.3±3.3^∗ s and the Number of coughs is 45.9±4.8^∗. Also, in assay [3] (BD-6 20 mg/kg, P<0.05), the “Cough incubation period vs solvent control (in words)” value was “significant improvement effect in the incubation period”. For the same molecule, in assay [3] (BD-6 50 mg/kg oral), the “Incubation period (cough)” value came to 30.6 ± 2.5 s and the Number of coughs is 49.8±3.8^∗. For the same molecule, in assay [4] (BD-6 50 mg/kg oral), the Frequency of writhing worked out at 31.1±3.7 times and the Writhing incubation period stood at 220.7 ± 22.2 s. Moreover, in assay [4] (BD-6 200 mg/kg oral), the Frequency of writhing is listed as 18.6±2.7^∗∗ times and the Writhing incubation period came to 193.2 ± 17.3 s. Moreover, the “Times of writhing vs model group (in words)” value in assay [4] (BD-6 200 mg/kg, P<0.05) was “can significantly reduce the times of writhing in mice”.

The record behind these values is patent publication US20230287068A1, “KERATIN BD-6, PREPARATION METHOD THEREFOR AND PHARMACEUTICAL COMPOSITION AND USE THEREOF” (INSTITUTE OF MATERIAL MEDICA, CHINESE ACADEMY OF MEDICAL …, priority 2019, published 2023).
